Test results as given in patent US20260116928A1, “COMPOSITIONS AND PARTICLES FOR PAYLOAD DELIVERY” (Thornhill Therapeutics, Inc., priority 2019, published 2026).

System: pancreatin
Assay: Pancreatin assay (stability of SEQ ID NO: 3 and exenatide formulations)
Conditions: after 120 minutes of incubation with pancreatin; FIG. 11

B1: SEQ ID NO: 3: Cholix carrier protein having the sequence of SEQ ID NO: 3 (protein)
chain: MVEEALNIFDECRSPCSLTPEPGKPIQSKLSIPSDVVLDEGVLYYSMTINDEQNDIKDEDKGESIITIGEFATVRATRHYVNQDAPFGVIHLDITTENGTKTYSYNRKEGEFAINWLVPIGEDSPASIKISVDELDQQRNIIEVPKLYSIDLDNQTLEQWKTQGNVSFSVTRPEHNIAISWPSVSYKAAQKEGSRHKRWAHWHTGLALCWLVPMDAIYNYITQQNCTLGDNWFGGSYETVAGTPKVITVKQGIEQKPVEQRIHFSKGSGGSGGGGSGGGGSPRRRRSSSRPVRRRRRPRVSRRRRRRGGRRRRHHHHHH
- degradation of SEQ ID NO: 3 by pancreatin: completely degraded
